Laboratory results as given in publication PMC5382021.

Tests used:
Assay in all cases: purified protein
[1] = system: O=c1ccn([C@@H]2O[C@H](CO)[C@H]3OP(=O)(O)O[C@H]32)c(=O)[nH]1; details: 2 mM Mn2+, pH 7.5
[2] = system: Nc1nc2c(ncn2[C@@H]2O[C@H](CO)[C@H]3OP(=O)(O)O[C@H]32)c(=O)[nH]1; details: 2 mM Mn2+, pH 7.5
[3] = system: Nc1nc2c(ncn2[C@@H]2O[C@@H]3CO[P@](=O)(O)O[C@H]4[C@@H](O)[C@H](n5cnc6c(=O)[nH]c(N)nc65)O[C@@H]4CO[P@](=O)(O)O[C@H]3[C@H]2O)c(=O)[nH]1; details: 50 mM Tris pH 7.5, 5 mM MnCl2, 37 °C
[4] = system: [H][C@@]1(O)[C@]2([H])OP(=O)(O)OC[C@@]3([H])O[C@@]([H])(n4cnc5c(N)ncnc54)[C@]([H])(O)[C@]3([H])OP(=O)(O)OC[C@@]2([H])O[C@@]1([H])n1cnc2c(N)ncnc21; details: 50 mM Tris pH 7.5, 5 mM MnCl2, 37 °C
[5] = system: Nc1nc2c(ncn2[C@@H]2O[C@@H]3COP(=O)(O)O[C@H]4[C@@H](O)[C@H](n5cnc6c(N)ncnc65)O[C@@H]4COP(=O)(O)O[C@H]3[C@H]2O)c(=O)[nH]1; details: 50 mM Tris pH 7.5, 5 mM MnCl2, 37 °C

rCdnP (CdnP, Gbs1929) (Streptococcus agalactiae 2603V/R)
Km [1]: 42 ± 10 µM
kcat [1]: 19.8 s⁻¹
kcat/Km [1]: 470000 M⁻¹ s⁻¹
Km [2]: 22 ± 4 µM
kcat [2]: 9.4 s⁻¹
kcat/Km [2]: 420000 M⁻¹ s⁻¹
Km [3]: 13.2 ± 6 µM
kcat [3]: 2.6 s⁻¹
kcat/Km [3]: 190000 M⁻¹ s⁻¹
Km [4]: 14 ± 1 µM
kcat [4]: 17.4 s⁻¹
kcat/Km [4]: 1.2e+06 M⁻¹ s⁻¹
Km [5]: 4.0 ± 1.6 µM
kcat [5]: 4.5 s⁻¹
kcat/Km [5]: 1.1e+06 M⁻¹ s⁻¹
